Data taken from PMC9482650, “Quantitative fragmentomics allow affinity mapping of interactomes” (Nature Communications, 2022).

How the values were obtained:
HaCat cell extract preys = experiment: PDZ-AP-MS, biotinylated MBP-PDZ baits; format: binding, human; conditions: for Difference log2: enrichment of prey
Method: (§1) For PDZ-AP-MS experiments, PDZ domains were cloned as His6-AviTag-MBP-PDZ constructs. For co-expression with BirA, E. coli BL21(DE3) cells were co-transformed with His6-AviTag-MBP, or His6-AviTag-MBP-PDZ-coding and PET21a-BirA (Addgene #20857) plasmids. Simultaneously to IPTG induction, 50 µM biotin was added to the media. After cell harvesting, the lysis buffer was also supplemented with 50 µM biotin. Otherwise, expression and double affinity purification was identical as previously described in details.
(§2) For PBM-AP-MS experiments, 30 μl streptavidin resin was mixed with biotin or peptide at 50–60 μM concentration in 6–6.5 resin volume for 60 min to achieve resin saturation. For PDZ-AP-MS experiments, 30 μl streptavidin resin was mixed with biotinylated MBP or MBP-PDZ at 40-50 μM concentration in >1000× resin volume for 60 min to achieve resin saturation. After saturation, resins were washed a single time (ten resin volume, holdup buffer), and were depleted with biotin (1 mM biotin, 5–10 resin volume, 10 min). Finally, resins were washed two times. 0.5 ml 2 mg/ml cell lysate was added to the dry resin (1 mg total input) and were incubated at 4 °C for 2 h. Then, the beads were washed three times with 10 resin volume buffer containing: 50 mM TRIS pH 8.5, 150 mM NaCl, 1% TritonX-100, 10× complete EDTA-free protease inhibitor cocktail, 2 mM EDTA, 1 mM TCEP. Then, the beads were washed two times with ten resin volume buffer containing: 50 mM TRIS pH 8.5, 150 mM NaCl, 1 mM TCEP. Finally, captured protein was eluted from the resin in two steps and the eluted fractions were pooled. For each elution the beads were incubated for 30 min with three resin volume buffer containing: 20 mM TRIS pH8.5, 100 mM NaCl, 500 μM TCEP, 8 M Urea. Between each step, the beads were separated by mild centrifugation and the supernatant was removed by gentle pipetting.
(§3) The samples were precipitated with TCA 20% overnight at 4 °C and centrifuged at 14,000 rpm for 10 min at 4 °C. The protein pellets were washed twice with 1 mL cold acetone and air dried. The protein extracts were solubilized in urea 8 M, reduced with 5 mM TCEP for 30 min, and alkylated with 10 mM iodoacetamide for 30 min in the dark. Double digestion was performed at 37 °C with 500 ng endoproteinase Lys-C for 4 h, followed by fourfold dilution and an overnight digestion with 500 ng trypsin. Peptide mixtures were then desalted on C18 spin-column and dried on Speed-Vacuum.
(§4) Samples were analyzed using an Ultimate 3000 nano-RSLC (Thermo Scientific, San Jose California) coupled in line with a LTQ-Orbitrap ELITE mass spectrometer via a nano-electrospray ionization source (Thermo Scientific, San Jose California). Peptide mixtures were injected in 0.1% TFA on a C18 Acclaim PepMap100 trap-column (75 µm ID × 2 cm, 3 µm, 100 Å, Thermo Fisher Scientific) for 3 min at 5 µL/min with 2% ACN, 0.1% FA in H2O and then separated on a C18 Accucore nano-column (75 µm ID × 50 cm, 2.6 µm, 150 Å, Thermo Fisher Scientific) at 220 nl/min and 38 °C with a 90 min linear gradient from 5% to 30% buffer B (A: 0.1% FA in H2O/B: 99% ACN, 0.1% FA in H2O), regeneration at 5% B. The mass spectrometer was operated in positive ionization mode, in data-dependent mode with survey scans from m/z 350–1500 acquired in the Orbitrap at a resolution of 120,000 at m/z 400. The 20 most intense peaks from survey scans were selected for further fragmentation in the Linear Ion Trap with an isolation window of 2.0 Da and were fragmented by CID with normalized collision energy of 35%. (TOP20CID method) Unassigned and single charged states were excluded from fragmentation. The Ion Target Value for the survey scans (in the Orbitrap) and the MS2 mode (in the Linear Ion Trap) were set to 1E6 and 5E3 respectively and the maximum injection time was set to 100 ms for both scan modes. Dynamic exclusion was set to 20 s after one repeat count with mass width at ±10 ppm. […]

HeLa cell extract preys = experiment: PDZ-AP-MS, biotinylated MBP-PDZ baits; format: binding, human; conditions: for Ratio: fold enrichment of prey; for Difference: log2 enrichment of prey
Method: as §1, §2, §3, §4

HEK293T cells = experiment: Label-free MS proteome of stable cell lines expressing HPV16 E6 or E6ΔPBM; format: cell-based, human; conditions: protein level
Method: HEK293T and HeLa cells were authenticated and found 100% identity to ATCC cat. CRL-3216 and ATCC cat. CCL-2, respectively. Jurkat and HaCat cell lines were not authenticated (original source: ECACC and Deutsches Krebsforschungszentrum DKFZ, respectively). HeLa cells were grown in DMEM (1 g/L glucose, Gibco) medium completed with 5% FCS and 40 μg/mL gentamicin, diluted every 3rd/4th day 1/10. HaCat cells were grown in DMEM (1 g/L glucose, Gibco) medium completed with 10% FCS and 40 μg/mL gentamicin, diluted every 3rd/4th day 1/4. Jurkat cells were grown in RPMI (Gibco) medium completed with 10% FCS and 40 μg/mL gentamicin, diluted every 3rd/4th day 1/12. All cells were kept at 37 °C and 5% CO2. For proteomics analyses cells were seeded on T-175 flasks. After they reached confluency, adherent cells were washed with PBS once and collected by scraping with ice-cold lysis buffer (Hepes-KOH pH 7.5 50 mM, NaCl 150 mM, Triton X-100 1%, complete EDTA-free protease inhibitor cocktail 1×, EDTA 2 mM, TCEP 5 mM, glycerol 10%). Jurkat cells were collected by 1000 g × centrifugation, washed once with PBS, then collected by 1000 g × 5 min centrifugation again and lysed in ice-cold lysis buffer. Lysates were sonicated 4 × 20 s with 1 s long pulses on ice, then incubated rotating at 4 °C for 30 min. Lysates were centrifuged at 12,000 rpm 4 °C for 20 min and supernatant was kept for further analysis. Concentration determination was carried out by standard Bradford method (Bio-Rad Protein Assay Dye Reagent #5000006) using BSA (MP BIomedicals #160069) as control on a Bio-Rad SmartSpec 3000 spectrophotometer instrument.
as §3
Samples were analyzed using an Ultimate 3000 nano-RSLC (Thermo Scientific, San Jose California) coupled in line with a LTQ-Orbitrap ELITE mass spectrometer via a nano-electrospray ionization source (Thermo Scientific, San Jose California). Peptide mixtures were injected in 0.1% TFA on a C18 Acclaim PepMap100 trap-column (75 µm ID × 2 cm, 3 µm, 100 Å, Thermo Fisher Scientific) for 3 min at 5 µL/min with 2% ACN, 0.1% FA in H2O and then separated on a C18 Accucore nano-column (75 µm ID × 50 cm, 2.6 µm, 150 Å, Thermo Fisher Scientific) at 220 nl/min and 38 °C with a 90 min linear gradient from 5% to 30% buffer B (A: 0.1% FA in H2O/B: 99% ACN, 0.1% FA in H2O), regeneration at 5% B. The mass spectrometer was operated in positive ionization mode, in data-dependent mode with survey scans from m/z 350–1500 acquired in the Orbitrap at a resolution of 120,000 at m/z 400. The 20 most intense peaks from survey scans were selected for further fragmentation in the Linear Ion Trap with an isolation window of 2.0 Da and were fragmented by CID with normalized collision energy of 35%. (TOP20CID method) Unassigned and single charged states were excluded from fragmentation. The Ion Target Value for the survey scans (in the Orbitrap) and the MS2 mode (in the Linear Ion Trap) were set to 1E6 and 5E3 respectively and the maximum injection time was set to 100 ms for both scan modes. Dynamic exclusion was set to 20 s after one repeat count with mass width at ±10 ppm.
Proteins were identified by database searching using SequestHT (Thermo Fisher Scientific) with Proteome Discoverer 2.4 software (PD2.4, Thermo Fisher Scientific) on human FASTA database downloaded from SwissProt (reviewed, release 2020_11_27, 20304 entries, https://www.uniprot.org/). […]

B1: CDH1 (protein, UniProt P12830 155-882, looked up)
Cadherin-1: DWVIPPISCPENEKGPFPKNLVQIKSNKDKEGKVFYSITGQGADTPPVGVFIIERETGWLKVTEPLDRERIATYTLFSHAVSSNGNAVEDPMEILITVTDQNDNKPEFTQEVFKGSVMEGALPGTSVMEVTATDADDDVNTYNAAIAYTILSQDPELPDKNMFTINRNTGVISVVTTGLDRESFPTYTLVVQAADLQGEGLSTTATAVITVTDTNDNPPIFNPTTYKGQVPENEANVVITTLKVTDADAPNTPAWEAVYTILNDDGGQFVVTTNPVNNDGILKTAKGLDFEAKQQYILHVAVTNVVPFEVSLTTSTATVTVDVLDVNEAPIFVPPEKRVEVSEDFGVGQEITSYTAQEPDTFMEQKITYRIWRDTANWLEINPDTGAISTRAELDREDFEHVKNSTYTALIIATDNGSPVATGTGTLLLILSDVNDNAPIPEPRTIFFCERNPKPQVINIIDADLPPNTSPFTAELTHGASANWTIQYNDPTQESIILKPKMALEVGDYKINLKLMDNQNKDQVTTLEVSVCDCEGAAGVCRKAQPVEAGLQIPAILGILGGILALLILILLLLLFLRRRAVVKEPLLPPEDDTRDNVYYYDEEGGGEEDQDFDLSQLHRGLDARPEVTRNDVAPTLMSVPRYLPRPANPDEIGNFIDENLKAADTDPTAPPYDSLLVFDYEGSGSEAASLSSLNSSESDKDQDYDYLNEWGNRFKKLADMYGGGEDD
HaCat cell extract preys; bait TX1BP3 PDZ vs MBP
  Difference log2: 8.222
HaCat cell extract preys; bait TX1BP3 PDZ, fold change of prey
  Ratio TX1BP3/MBP: 298.682

B2: NONO (protein, UniProt Q15233 1-471, looked up)
Non-POU domain-containing …: MQSNKTFNLEKQNHTPRKHHQHHHQQQHHQQQQQQPPPPPIPANGQQASSQNEGLTIDLKNFRKPGEKTFTQRSRLFVGNLPPDITEEEMRKLFEKYGKAGEVFIHKDKGFGFIRLETRTLAEIAKVELDNMPLRGKQLRVRFACHSASLTVRNLPQYVSNELLEEAFSVFGQVERAVVIVDDRGRPSGKGIVEFSGKPAARKALDRCSEGSFLLTTFPRPVTVEPMDQLDDEEGLPEKLVIKNQQFHKEREQPPRFAQPGSFEYEYAMRWKALIEMEKQQQDQVDRNIKEAREKLEMEMEAARHEHQVMLMRQDLMRRQEELRRMEELHNQEVQKRKQLELRQEEERRRREEEMRRQQEEMMRRQQEGFKGTFPDAREQEIRMGQMAMGGAMGINNRGAMPPAPVPAGTPAPPGPATMMPDGTLGLTPPTTERFGQAATMEGIGAIGGTPPAFNRAAPGAEFAPNKRRRY
HeLa cell extract preys; bait DLG1_1 PDZ vs MBP control
  Ratio: 31.101
  Difference: 4.959
HeLa cell extract preys; bait SCRIB_2 PDZ (biotinylated MBP-PDZ) vs MBP control
  Difference: 4.7577
HeLa cell extract preys; bait SCRIB_2 PDZ vs MBP control
  Ratio: 27.0527

B3: PGP (protein, UniProt A6NDG6 1-321, looked up)
Glycerol-3-phosphate …: MAAAEAGGDDARCVRLSAERAQALLADVDTLLFDCDGVLWRGETAVPGAPEALRALRARGKRLGFITNNSSKTRAAYAEKLRRLGFGGPAGPGASLEVFGTAYCTALYLRQRLAGAPAPKAYVLGSPALAAELEAVGVASVGVGPEPLQGEGPGDWLHAPLEPDVRAVVVGFDPHFSYMKLTKALRYLQQPGCLLVGTNMDNRLPLENGRFIAGTGCLVRAVEMAAQRQADIIGKPSRFIFDCVSQEYGINPERTVMVGDRLDTDILLGATCGLKTILTLTGVSTLGDVKNNQESDCVSKKKMVPDFYVDSIADLLPALQG
HEK293T cells; E6 cell line vs control
  Difference log2 E6/Ctrl: 0.3606
  Ratio E6/Ctrl: 1.284
HEK293T cells; dPBM cell line vs E6 cell line
  Difference log2 dPBM/E6: 0.0821
  Ratio dPBM/E6: 1.059
HEK293T cells; dPBM cell line vs control
  Difference log2 dPBM/Ctrl: 0.4427
  Ratio dPBM/Ctrl: 1.359

B4: BAIAP2L1 (protein, UniProt Q9UHR4 1-511, looked up)
BAR/IMD domain-containing …: MSRGPEEVNRLTESTYRNVMEQFNPGLRNLINLGKNYEKAVNAMILAGKAYYDGVAKIGEIATGSPVSTELGHVLIEISSTHKKLNESLDENFKKFHKEIIHELEKKIELDVKYMNATLKRYQTEHKNKLESLEKSQAELKKIRRKSQGSRNALKYEHKEIEYVETVTSRQSEIQKFIADGCKEALLEEKRRFCFLVDKHCGFANHIHYYHLQSAELLNSKLPRWQETCVDAIKVPEKIMNMIEEIKTPASTPVSGTPQASPMIERSNVVRKDYDTLSKCSPKMPPAPSGRAYTSPLIDMFNNPATAAPNSQRVNNSTGTSEDPSLQRSVSVATGLNMMKKQKVKTIFPHTAGSNKTLLSFAQGDVITLLIPEEKDGWLYGEHDVSKARGWFPSSYTKLLEENETEAVTVPTPSPTPVRSISTVNLSENSSVVIPPPDYLECLSMGAAADRRADSARTTSTFKAPASKPETAAPNDANGTAKPPFLSGENPFATVKLRPTVTNDRSAPIIR
HaCat cell extract preys; bait SCRIB_2 PDZ vs MBP
  Difference log2: 3.855
HaCat cell extract preys; bait SCRIB_2 PDZ, fold change of prey
  Ratio SCRIB_2/MBP: 14.4736
